What was measured:
mouse GLUT1 (mmGLUT1) = target: T1, mouse GLUT1 (mmGLUT1) (mouse, UniProt P17809 1-492); experiment: flow cytometry, permeabilized transfected HEK-293T
T1 construct: whole, on cells
T1 sequence (looked up): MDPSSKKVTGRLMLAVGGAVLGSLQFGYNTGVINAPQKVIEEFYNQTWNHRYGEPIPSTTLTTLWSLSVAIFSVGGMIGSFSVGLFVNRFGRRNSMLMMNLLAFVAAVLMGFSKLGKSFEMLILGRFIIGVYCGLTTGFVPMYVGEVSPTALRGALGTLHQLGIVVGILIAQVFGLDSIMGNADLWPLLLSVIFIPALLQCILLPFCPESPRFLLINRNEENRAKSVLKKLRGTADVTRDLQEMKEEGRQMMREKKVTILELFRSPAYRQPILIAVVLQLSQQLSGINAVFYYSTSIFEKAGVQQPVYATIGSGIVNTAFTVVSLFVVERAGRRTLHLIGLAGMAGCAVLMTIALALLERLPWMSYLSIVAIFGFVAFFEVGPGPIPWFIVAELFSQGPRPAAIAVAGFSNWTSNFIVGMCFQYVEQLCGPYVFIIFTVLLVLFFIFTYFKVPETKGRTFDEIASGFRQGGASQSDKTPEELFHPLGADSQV
Description: (§1) HEK-293T cells were transfected by CaPO₄ with plasmids in 6-well culture plates (Falcon) at 750,000 cells/well. At 48 hours post transfection, cells were stained with anti-V5 and anti-GLUT4 MAbs (purified scFv, 2 μg/ml) followed by biotinylated goat anti-mouse or human antibody (1:500) and streptavidin-PerCP (1:500). Fluorescence was detected using an Intellicyt high-throughput flow cytometer (HTFC; Intellicyt, Albuquerque, N. Mex.). For cell permeabilization, cells were treated with saponin at 0.1% in PBS for 20 minutes. To discriminate intact (live) and permeabilized (dead) cells without the use of detergent, propidium iodide (PI) was added to HEK-293T cells at 1 ug/ml just prior to flow cytometry. Where indicated, cytochalasin B (Sigma) was used at a final concentration of 10 uM and phloretin (Sigma) was used at a final concentration of 100 uM, each added in 10% NGS for 30 minutes prior to antibody staining as well as included with the primary antibody.

human GLUT1 (hsGLUT1) = target: T2, human GLUT1 (hsGLUT1) (human, UniProt P11166 1-492); experiment: flow cytometry, permeabilized transfected HEK-293T
T2 construct: whole, on cells
T2 sequence (looked up): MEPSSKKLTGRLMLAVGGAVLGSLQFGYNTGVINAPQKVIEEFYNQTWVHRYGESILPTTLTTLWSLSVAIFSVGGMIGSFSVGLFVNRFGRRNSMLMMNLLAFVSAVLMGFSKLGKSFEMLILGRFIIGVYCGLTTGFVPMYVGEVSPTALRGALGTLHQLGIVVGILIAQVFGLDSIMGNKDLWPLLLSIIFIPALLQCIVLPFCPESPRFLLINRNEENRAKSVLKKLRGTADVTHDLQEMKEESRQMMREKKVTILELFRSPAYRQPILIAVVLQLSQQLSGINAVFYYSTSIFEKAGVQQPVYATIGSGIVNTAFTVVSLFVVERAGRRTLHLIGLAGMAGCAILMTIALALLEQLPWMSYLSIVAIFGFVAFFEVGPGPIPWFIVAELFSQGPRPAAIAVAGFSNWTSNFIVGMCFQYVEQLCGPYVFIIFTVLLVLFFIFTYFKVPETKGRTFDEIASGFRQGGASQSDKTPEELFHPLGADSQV
Description: as §1

B1: AB102 (Fc fusion)
scFv: ALTQPSSVSANLGGTVKITCSGGGSYGYGWYQQKSPGSAPVTVIYSNDQRPSDIPSRFSGSKSGSTATLTITGVRAEDEAIYYCGSTDSDYVGIFGAGTTLTVLGQSSRSSGGGGSSGGGGSAVTLDESGGGLQTPGGTLSLVCKASGFDFSSYATIWVRQAPGKGLEWVAGISGTGTGSSTGYAPAVKGRATISRDNGQSTVRLQLNNLRAEDTGSYFCAKSTGYGDSWIYPDSIDAWGHGTEVIVSS
notes: also called MAb AB102; not shown: Fc fragment of human IgG1, cloned in frame with the scFv
B1: binds (mouse GLUT1 (mmGLUT1)); binds (human GLUT1 (hsGLUT1)).
